Data as given in paper PMC10657408, “c-di-GMP inhibits the DNA binding activity of H-NS in Salmonella” (Nature Communications, 2023).
Where a chain is given by its changes, count along the chain named.

How the values were obtained:
[1] = target: T1, H-NS (Salmonella enterica serovar Typhimurium (LT2 reference genome; SL1344 also used)) (UniProt P0A1S2); assay: ITC; conditions: ITC: 25 mM Tris-HCl, 150 mM NaCl, pH 7.5, 20 C, 100 uM DNA into 10 uM protein; EMSA: 20 mM Tris-HCl, 4 mM MgCl2, 100 mM NaCl, 1 mM DTT, 1% NP-40, 10% glycerol …
T1 sequence: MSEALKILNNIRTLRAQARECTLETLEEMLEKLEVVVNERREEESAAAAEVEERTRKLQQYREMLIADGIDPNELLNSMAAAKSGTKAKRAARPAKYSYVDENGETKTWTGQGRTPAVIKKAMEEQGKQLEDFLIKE

[2] = target: T2, H-NS K107A K107A (Salmonella enterica serovar Typhimurium (LT2 reference genome; SL1344 also used)) (UniProt P0A1S2); assay: ITC; conditions: ITC: 25 mM Tris-HCl, 150 mM NaCl, pH 7.5, 20 C, 100 uM DNA into 10 uM protein; EMSA: 20 mM Tris-HCl, 4 mM MgCl2, 100 mM NaCl, 1 mM DTT, 1% NP-40, 10% glycerol …
T2 sequence: T1 sequence with K107A

[3] = target: T1, H-NS (Salmonella enterica serovar Typhimurium (LT2 reference genome; SL1344 also used)); assay: EMSA; conditions: ITC: 25 mM Tris-HCl, 150 mM NaCl, pH 7.5, 20 C, 100 uM DNA into 10 uM protein; EMSA: 20 mM Tris-HCl, 4 mM MgCl2, 100 mM NaCl, 1 mM DTT, 1% NP-40, 10% glycerol …
[4] = target: T2, H-NS K107A K107A (Salmonella enterica serovar Typhimurium (LT2 reference genome; SL1344 also used)); assay: EMSA; conditions: ITC: 25 mM Tris-HCl, 150 mM NaCl, pH 7.5, 20 C, 100 uM DNA into 10 uM protein; EMSA: 20 mM Tris-HCl, 4 mM MgCl2, 100 mM NaCl, 1 mM DTT, 1% NP-40, 10% glycerol …
[5] = tested on: H-NS (Salmonella enterica serovar Typhimurium (LT2 reference genome; SL1344 also used)); assay: ITC; conditions: ITC: 25 mM Tris-HCl, 150 mM NaCl, pH 7.5, 20 C, 100 uM DNA into 10 uM protein; EMSA: 20 mM Tris-HCl, 4 mM MgCl2, 100 mM NaCl, 1 mM DTT, 1% NP-40, 10% glycerol …
[6] = tested on: H-NS K107A (Salmonella enterica serovar Typhimurium (LT2 reference genome; SL1344 also used)); assay: ITC; conditions: ITC: 25 mM Tris-HCl, 150 mM NaCl, pH 7.5, 20 C, 100 uM DNA into 10 uM protein; EMSA: 20 mM Tris-HCl, 4 mM MgCl2, 100 mM NaCl, 1 mM DTT, 1% NP-40, 10% glycerol …
[7] = target: T3, H-NS T115A T115A (Salmonella enterica serovar Typhimurium (LT2 reference genome; SL1344 also used)) (UniProt P0A1S2); assay: ITC; conditions: ITC: 25 mM Tris-HCl, 150 mM NaCl, pH 7.5, 20 C, 100 uM DNA into 10 uM protein; EMSA: 20 mM Tris-HCl, 4 mM MgCl2, 100 mM NaCl, 1 mM DTT, 1% NP-40, 10% glycerol …
T3 sequence: T1 sequence with T115A

[8] = target: T4, StpA (Salmonella enterica, UniProt P0A1S4, F98Y); assay: Kd measurement (ITC, Supplementary Fig. […]b); format: binding
T4 sequence (P0A1S4 1-133 F98Y): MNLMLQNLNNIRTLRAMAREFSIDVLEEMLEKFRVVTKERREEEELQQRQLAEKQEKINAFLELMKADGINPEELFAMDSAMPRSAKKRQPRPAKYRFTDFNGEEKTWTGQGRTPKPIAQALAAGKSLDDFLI

[9] = target: T5, H-NS (Salmonella enterica, UniProt A0A0H3NBY9); assay: ITC ([…] stoichiometry); also UV-crosslinking competition and EMSA inhibition of DNA binding
T5 construct: gene hns; full-length, tag-free

[10] = target: StpA (Salmonella enterica, UniProt P0A1S4); assay: Kd measurement (ITC, Supplementary Fig. […]b); format: binding

Compound | Kd [1] | Kd [2] | binding [3] | binding [4] | Kd [5] | Kd [6] | further results
ATGTTTCATGGATTTCCCTTGAATTACACACACCCGGTTTCGGCATCCTGTCGGCTCCGTTTGAATTATTATCGACATAGCATGTCAGAAAAGTTATCTCTGCATCCTGTAAAGATAGATATCGCAGATTAATTAGTTTTCTGTTTCTCCCCTGAGTATCAGACGCAGTAATTAATCTTTGCGAATATGACATTTCGTCACGGTAATAAATTAAACATTTCGCTAAATAAAAAATAGCCG (double strand) [PfimA] | 0.36 µM | 0.43 µM | binds | binds | – | – | –
PvgrG | – | – | – | – | 0.46 µM | 0.38 µM | –
PclpV | – | – | – | – | 0.31 µM | 0.32 µM | –
PyaiU | – | – | – | – | 0.29 µM | – | –
PfimA | – | – | – | – | 0.36 µM | 0.43 µM | –
CAAAACTCATGGTAGTGACTCCTTTAATACCGGATTAAAATAAATAGACTCACCGTCAGGAAACAGTGCCCCGCACTTTATAATGCAACCAGCCTGTTATATTTAAATATTTACCAGAAGAACAGGGTATATTGCTGACAAGAGCCATGAAAATAAAAACACAAAAATTAGCACATAACATAAATACTGAATTACATAAATAAGGAAATGAACATAACAATA (double strand) [PvgrG] | 0.46 µM | 0.38 µM | binds | binds | – | – | binding [7]: binds more weakly
TAATCGATGGTGTTATCATTAGGAAGATAAATTTCTTCATATATAACCCAGTCGATGACTACAATTACTTTTTAATAAGATGGCGATGTAAAAACATCGTAACAGTTTATTTAATAAATAATTTTTCAAATTGTAAGTTTTTATGTCAATGCTGAAAATGTAATTGTGAATTTATCGGAAAATCCGAATGATAGAATCGCCTGTGACAAGGTATATGTAGACAGCATCCTGATATTGTA (double strand) [PssrAB] | – | – | binds | – | – | – | –
TTCCATGTGTTATGCCTTGTGACATAAAAATTCATAAAAATAATGCATCAATGCATATAAATATATAAACAATTCTTTATTGATAGCCTCGAAAAAATATCGAAACAAAACAATGATACAGATCAGGGACTAATTAGCAACTAAGCCGTTAATATTAAATAATCAATGAACAGCAAGATAAAAA (double strand) [PclpV] | 0.31 µM | 0.32 µM | binds | binds | – | – | binding [7]: binds more weakly
Nc1nc2c(ncn2[C@@H]2O[C@@H]3CO[P@](=O)(O)O[C@H]4[C@@H](O)[C@H](n5cnc6c(=O)[nH]c(N)nc65)O[C@@H]4CO[P@](=O)(O)O[C@H]3[C@H]2O)c(=O)[nH]1 [c-di-GMP] | – | – | – | – | – | – | Kd [8]: 0.64 ± 0.09 µM; Kd [9]: 0.27 ± 0.04 µM; Kd [10]: 73 ± 14 µM
